Results as given in US20030055219A1 (MYRIAD GENETICS, published 2003).
One block for each binder: values may come before it.

Legend:
[1] = molecular target: T1, C-NAP1 amino acids 1000-1300 (two-hybrid bait, fused to the Gal4 DNA binding domain) (yeast, UniProt P04386 1-147; Q9BV73 1000-1300); assay: yeast two-hybrid, bait C-NAP1 AA 1000-1300, prey AA 184-246
T1 construct: range 1-147;range 1000-1300; Bait was expressed in yeast as a C-terminal fusion to Gal4 DBD 1-147 from vector pGBTQ
Source text: (§1) A total human brain (person) cDNA library cloned into the yeast expression vector pACT2 was purchased from Clontech (human brain […] cDNA, cat. #HL4004AH), transformed into the yeast strain J692 (genotype of this strain: Mat α, ade2, his3, leu2, trp1, URA3::GAL1-lacZ LYS2::GAL1-HIS3 gal4del ga18Odel cyhR2), and selected for the ability to drive leucine synthesis. In these yeast cells, each cDNA is expressed as a fusion protein with the transcription activation domain of the transcription factor Gal4 (amino acids 768 to 881) and a 9 amino acid hemagglutinin epitope tag. J693 cells (Mat a type) expressing the bait were then mated with J692 cells […] expressing proteins from the brain library. The resulting diploid yeast cells expressing proteins interacting with the bait protein were selected for the ability to synthesize tryptophan, leucine, histidine, and β-galactosidase. DNA was prepared from each clone, transformed by electroporation into E. coli strain KC8 (Clontech KC8 electrocompetent cells, cat. #C2023-1), and the cells were selected on ampicillin-containing plates in the absence of either tryptophane (selection for the bait plasmid) or leucine (selection for the brain library plasmid). DNA for both plasmids was prepared and sequenced by di-deoxynucleotide chain termination method. […]

[2] = molecular target: T2, C-NAP1 amino acids 1-300 (two-hybrid bait, fused to the Gal4 DNA binding domain) (yeast, UniProt P04386 1-147; Q9BV73 1-300); assay: yeast two-hybrid, bait C-NAP1 AA 1-300, prey AA 2-76
T2 construct: range 1-147;range 1-300; Bait cDNA was made by PCR from brain cDNA; It was expressed in yeast as a C-terminal fusion to Gal4 DBD 1-147 from vector pGBTQ
Source text: as §1

[3] = molecular target: T1, C-NAP1 amino acids 1000-1300 …; assay: yeast two-hybrid, C-NAP1 fragment as Gal4 DBD bait, human brain library prey
Source text: In these yeast cells, the bait is produced as a C-terminal fusion protein with the DNA binding domain of the transcription factor Gal4 (amino acids 1 to 147). A total human brain (person) cDNA library cloned into the yeast expression vector pACT2 was purchased from Clontech (human brain […] cDNA, cat. #HL4004AH), transformed into the yeast strain J692 (genotype of this strain: Mat α, ade2, his3, leu2, trp1, URA3::GAL1-lacZ LYS2::GAL1-HIS3 gal4del ga18Odel cyhR2), and selected for the ability to drive leucine synthesis. In these yeast cells, each cDNA is expressed as a fusion protein with the transcription activation domain of the transcription factor Gal4 (amino acids 768 to 881) and a 9 amino acid hemagglutinin epitope tag. J693 cells (Mat a type) expressing the bait were then mated with J692 cells (Mat a type) expressing proteins from the brain library. The resulting diploid yeast cells expressing proteins interacting with the bait protein were selected for the ability to synthesize tryptophan, leucine, histidine, and β-galactosidase. DNA was prepared from each clone, transformed by electroporation into E. coli strain KC8 (Clontech KC8 electrocompetent cells, cat. #C2023-1), and the cells were selected on ampicillin-containing plates in the absence of either tryptophane (selection for the bait plasmid) or leucine (selection for the brain library plasmid). […]

[4] = molecular target: T1, C-NAP1 amino acids 1000-1300 …; assay: yeast two-hybrid, bait C-NAP1 AA 1000-1300, prey AA 7-283
Source text: as §1

[5] = molecular target: T3, C-NAP1 amino acids 250-550 (two-hybrid bait, fused to the Gal4 DNA binding domain) (yeast, UniProt P04386 1-147; Q9BV73 250-550); assay: yeast two-hybrid, bait C-NAP1 AA 250-550, prey AA 1314-1575
T3 construct: range 1-147;range 250-550; Bait was expressed in yeast as a C-terminal fusion to Gal4 DBD 1-147 from vector pGBTQ
Source text: as §1

B1: BAP31 amino acids 184-246 (two-hybrid prey clone, fused to the Gal4 activation domain) (other, yeast;human, UniProt P04386 768-881, looked up, not shown: small tags and cut ends)
chain: ANFNQSGNIADSSLSFTFTNSSNGPNLITTQTNSQALSQPIASSNVHDNFMNNEITASKIDDGNNSKPLSPGWTDQTAYNAFGITTGMFNTTTMDDVYNYLFDDEDTPPNPKKELKADLQKLKDELASTKQKLEKAENQVLAMRKQSEGLTKEYDRLLEEHAKLQAAVDGPMDKKEE
notes: range 768-881;range 184-246; The printed GenBank number 'U5211' looks truncated
binding result [1]: binds

B2: HSBP1 amino acids 2-76 (two-hybrid prey clone, fused to the Gal4 activation domain) (other, yeast;human, UniProt P04386 768-881, looked up, not shown: small tags and cut ends)
chain: ANFNQSGNIADSSLSFTFTNSSNGPNLITTQTNSQALSQPIASSNVHDNFMNNEITASKIDDGNNSKPLSPGWTDQTAYNAFGITTGMFNTTTMDDVYNYLFDDEDTPPNPKKEAETDPKTVQDLTSVVQTLLQQMQDKFQTMSDQIIGRIDDMSSRIDDLEKNIADLMTQAGVEELESENKIPATQKS
notes: range 768-881;range 2-76
binding result [2]: binds

Now from value to binder:

binding result [3]: binds
B3: FIP-2 amino acids 302-577 (two-hybrid prey clone, fused to the Gal4 activation domain) (other, yeast;human, UniProt P04386 768-881, looked up, not shown: small tags and cut ends)
chain: ANFNQSGNIADSSLSFTFTNSSNGPNLITTQTNSQALSQPIASSNVHDNFMNNEITASKIDDGNNSKPLSPGWTDQTAYNAFGITTGMFNTTTMDDVYNYLFDDEDTPPNPKKELNLQVTSLFKELQEAHTKLSEAELMKKRLQEKCQALERKNSAIPSELNEKQELVYTNKKLELQVESMLSEIKMEQAKTEDEKSKLTVLQMTHNKLLQEHNNALKTIEELTRKESEKVDRAVLKELSEKLELAEKALASKQLQMDEMKQTIAKQEEDLETMTILRAQMEVYCSDFHAERAAREKIHEEKEQLALQLAVLLKENDAFEDGGRQSLMEMQSRHGARTSDSDQQAYLVQRGAEDRDWRQQRNIPIHSCPKCGEVLPDIDTLQIHVMDCII
notes: Prey came from the Clontech human brain library in pACT2; The clone 'included' these residues

binding result [4]: binds
B4: KIAA0174 amino acids 7-283 (two-hybrid prey clone, fused to the Gal4 activation domain) (other, yeast;human, UniProt P04386 768-881, looked up, not shown: small tags and cut ends)
chain: ANFNQSGNIADSSLSFTFTNSSNGPNLITTQTNSQALSQPIASSNVHDNFMNNEITASKIDDGNNSKPLSPGWTDQTAYNAFGITTGMFNTTTMDDVYNYLFDDEDTPPNPKKEKAERLRVNLRLVINRLKLLEKKKTELAQKARKEIADYLAAGKDERARIRVEHIIREDYLVEAMEILELYCDLLLARFGLIQSMKELDSGLAESVSTLIWAAPRLQSEVAELKIVADQLCAKYSKEYGKLCRTNQIGTVNDRLMHKLSVEAPPKILVERYLIEIAKNYNVPYEPDSVVMAEAPPGVETDLIDVGFTDDVKKGGPGRGGSGGFTAPVGGPDGTVPMPMPMPMPSANTPFSYPLPKGPSDFNGLPMGTYQAFPNIHPPQIPATPPSYESV
notes: range 768-881;range 7-283

binding result [5]: binds
B5: IQGAP2 amino acids 1314-1575 (two-hybrid prey clone, fused to the Gal4 activation domain) (other, yeast;human, UniProt P04386 768-881, looked up, not shown: small tags and cut ends)
chain: ANFNQSGNIADSSLSFTFTNSSNGPNLITTQTNSQALSQPIASSNVHDNFMNNEITASKIDDGNNSKPLSPGWTDQTAYNAFGITTGMFNTTTMDDVYNYLFDDEDTPPNPKKEQPGNTLTEILETPATAQQEVDHATDMVSRAMIDSRTPEEMKHSQSMIEDAQLPLEQKKRKIQRNLRTLEQTGHVSSENKYQDILNEIAKDIRNQRIYRKLRKAELAKLQQTLNALNKKAAFYEEQINYYDTYIKTCLDNLKRKNTRRSIKLDGKGEPKGAKRAKPVKYTAAKLHEKGVLLDIDDLQTNQFKNVTFDIIATEDVGIFDVRSKFLGVEMEKVQLNIQDLLQMQYEGVAVMKMFDKVKVNVNLLIYLLNKKFYGK
